T1: recombinant human His-tagged FcγRIIa (R&D Systems #1330-CD-050) (human, UniProt P12318 36-218, limits assumed)
T1 construct: Bought; also called CD32a; recombinant, soluble, human FcγRIIa
T1 sequence (looked up): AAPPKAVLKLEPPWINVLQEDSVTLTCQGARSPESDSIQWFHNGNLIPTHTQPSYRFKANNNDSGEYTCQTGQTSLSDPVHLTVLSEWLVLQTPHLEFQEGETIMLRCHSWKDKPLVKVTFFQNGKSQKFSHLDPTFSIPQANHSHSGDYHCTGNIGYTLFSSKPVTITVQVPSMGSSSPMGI

T2: recombinant human FcγRIIb (R&D Systems #1875-CD-050) (human, UniProt P31994 46-217, limits assumed)
T2 construct: Bought; also called CD32b; recombinant, soluble, human FcγRIIb
T2 sequence (looked up): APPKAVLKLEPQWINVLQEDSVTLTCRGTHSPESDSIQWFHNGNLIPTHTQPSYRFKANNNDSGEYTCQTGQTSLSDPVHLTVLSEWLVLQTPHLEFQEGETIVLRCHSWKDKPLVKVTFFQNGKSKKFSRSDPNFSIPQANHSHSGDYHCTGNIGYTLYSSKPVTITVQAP


Legend:
[1] = target: T1, recombinant human His-tagged FcγRIIa …; experiment: AlphaScreen, His-tagged FcγRIIa on nickel acceptor beads
Protocol: (§1) FcγRIIa (CD32a) AlphaScreen—Nickel acceptor beads (Perkin Elmer #6760619C) were diluted 1:50 in assay buffer (PBS, pH 7.4, 4 mg/ml BSA, 0.01% Tween-20), and 27.5 μl were added to each well of a Nunc V-bottom polypropylene plate (VWR # 62409-108) (Powers G., Notebook 9006, pp. 169-175, 182-185). A 2.0 μg/ml solution of recombinant human His-tagged FcγRIIa (R&D Systems #1330-CD-050) was prepared in assay buffer and 27.5 μl added to each well of a separate Nunc V bottom polypropylene plate. Titrations of test Abs were prepared in the Nunc V bottom polypropylene plate starting at 30 μg/ml. A 2 μg/ml solution of biotinylated goat F(ab′)₂ anti-human IgG F(ab′)₂ (Jackson Immunoresearch #109-066-097) was prepared in assay buffer and 27.5 μl added to each well of another Nunc V bottom polypropylene plate. A 1:50 dilution of streptavidin donor beads (PerkinElmer # 6760002) was prepared in assay buffer and 27.5 μl added to each well of another Nunc V bottom polypropylene plate. A volume of 5 μl of each reagent was added to the corresponding quadrants of a low-volume, non-binding white 384-well plate (Corning # 3673) in the following order: acceptor beads, FcγRIIa, test Ab, biotinylated anti-human IgG F(ab′)₂, and streptavidin donor beads. The plates were incubated for 30 minutes with shaking and the O.D.s determined using an Envision plate reader.

[2] = target: T2, recombinant human FcγRIIb (R&D Systems …); experiment: AlphaScreen, FcγRIIb on nickel acceptor beads
Protocol: as §1
FcγRIIb (CD32b) AlphaScreen—The assay was performed as described above for FcγRIIa except that FcγRIIa was replaced with FcγRIIb (R&D Systems #1875-CD-050).

[3] = target: T3, recombinant human His-tagged FcγRIIIa (extracellular domain made at Centocor) (human, UniProt P08637 17-208); experiment: ELISA, His-tagged FcγRIIIa captured on HisGrab plate
T3 construct: extracellular domain; also called CD16a; recombinant, soluble, human FcγRIIIa
Protocol: FcγRIIIa (CD16a) ELISA—A human FcγRIIIa binding assay was done in ELISA format similar to the assay for FcγRI above. 50 μl of a 2 μg/ml solution of recombinant human His-tagged FcγRIIIa (extracellular domain made at Centocor) in ELISA buffer (PBS, 4 mg/ml BSA, 0.01% Tween-20) was added to each well of HisGrab 96 well plates (Pierce #15142) (Powers G., Notebook 10378, 19-23). The plate was incubated for 3 hours at room temp. The plates were blocked with 200 μl of Starting Block (Pierce #15142) for 30 min, and then washed 3× with 300 μl of wash buffer (PBS, 0.01% Tween-20) on a plate washer. Serial dilutions of the CNTO 860 test samples were made in Starting Block buffer and 50 μl per well of each titration were added in duplicate to the FcγRIIIa-coated plates. The plates were incubated for 1 hour. The plates were washed 3× with 300 μl of wash buffer on a plate washer. 50 μl of a 1:10,000 dilution of HRP-labeled goat F(ab′)2 anti-human IgG F(ab′)2 (Jackson Immunoresearch # 109-036-097) in Starting Block buffer was added to each well. The plates were incubated for 30 minutes. The plates were washed 3× with 300 μl of wash buffer on the plate washer. 50 μl per well TMB substrate (RDI #RDI-TMBSU-1L) was added to each well and developed for 3-5 minutes. The reaction was stopped by adding 100 μl […] sulfuric acid. The plates were read at OD450 on an Envision plate reader. Antibody concentration vs OD450 values were graphed for each CNTO 860 variant and the antibody concentration needed to achieve an OD450 reading of 0.14 established by interpolation within each data curve.

[4] = target: FcγRIIIa on NK cells of human PBMC (human, UniProt P08637 17-254); experiment: cell-based or functional assay
FcγRIIIa on NK cells of human PBMC, sequence (P08637 17-254): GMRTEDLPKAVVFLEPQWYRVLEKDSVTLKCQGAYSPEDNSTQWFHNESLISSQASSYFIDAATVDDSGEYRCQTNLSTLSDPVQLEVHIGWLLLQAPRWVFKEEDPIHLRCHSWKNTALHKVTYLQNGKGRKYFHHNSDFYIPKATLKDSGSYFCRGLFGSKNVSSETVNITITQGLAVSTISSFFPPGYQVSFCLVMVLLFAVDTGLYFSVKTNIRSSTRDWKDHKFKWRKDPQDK

T3 sequence (P08637 17-208): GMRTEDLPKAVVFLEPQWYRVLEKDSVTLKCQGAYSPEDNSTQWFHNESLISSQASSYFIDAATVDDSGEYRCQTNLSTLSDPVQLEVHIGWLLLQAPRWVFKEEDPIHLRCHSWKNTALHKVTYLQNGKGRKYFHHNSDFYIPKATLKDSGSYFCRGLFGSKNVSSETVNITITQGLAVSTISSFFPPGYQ

Row | concentration (ng/ml) required for a set O.D. signal [1] | concentration (ng/ml) required for an O.D. value of 200,000 [2] | concentration (ng/ml) required for an O.D. value of 0.14 [3] | EC25 (ng/ml), ADCC of HCT116 cells by human PBMC [4] | Binder
1 | 97 ng/mL | 165 ng/mL | 4500 ng/mL | – | CHO-CNTO 860 WT (antibody, human IgG1, kappa, N-linked glycan at heavy chain Asn297 (CHO-type, highly fucosylated); not carried by the letters, Anti-human tissue factor human IgG1/kappa; transiently expressed in CHO cells (plasmids p4145/p4146; CHO Abs typically 95% fucosylated), purified by protein A; also called CNTO 860 WT from CHO cells; WT (CHO cell-derived); copies: 2 + 2) heavy: not shown light: DIQMTQSPSSLSASVGDRVTITCKASQDIRKYLNWYQQKPGKAPKLLIYYATSLADGVPSRFSGSGSGTDYTFTISSLQPEDIATYYCLQHGESPYTFGQGTKLEITRTVAAPSVFIFPPSDEQLKSGTASVVCLLNNFYPREAKVQWKVDNALQSGNSQESVTEQDSKDSTYSLSSTLTLSKADYEKHKVYACEVTHQGLSSPVTKSFNRGEC
2 | 63 ng/mL | 120 ng/mL | 1500 ng/mL | – | YB2/0-CNTO 860 WT (antibody, human IgG1, kappa, Heavy chain N297 carries the YB2/0-type N-linked glycan (40-60% fucosylated); not carried by the letters., Anti-human tissue factor human IgG1/kappa; stably expressed in rat YB2/0 cells (p2401/p2402; YB2/0 Abs typically 40-60% fucosylated), purified by protein A; also called WT (YB2/0 cell-derived); WT from YB2/0 cells; copies: 2 + 2) heavy: not shown light: DIQMTQSPSSLSASVGDRVTITCKASQDIRKYLNWYQQKPGKAPKLLIYYATSLADGVPSRFSGSGSGTDYTFTISSLQPEDIATYYCLQHGESPYTFGQGTKLEITRTVAAPSVFIFPPSDEQLKSGTASVVCLLNNFYPREAKVQWKVDNALQSGNSQESVTEQDSKDSTYSLSSTLTLSKADYEKHKVYACEVTHQGLSSPVTKSFNRGEC
3 | 75 ng/mL | 27 ng/mL | 600 ng/mL | 0.7 ng/mL | CHO-CNTO 860 I332E/S239D (antibody, human IgG1, kappa, Heavy chain N297 carries the CHO-type N-linked glycan (about 95% fucosylated); not carried by the letters., IgG1/kappa Fc variant; transiently expressed in CHO cells (p4186/p4146); EU numbering; also called S239D/I332E (CHO cell-derived); copies: 2 + 2) heavy: not shown light: DIQMTQSPSSLSASVGDRVTITCKASQDIRKYLNWYQQKPGKAPKLLIYYATSLADGVPSRFSGSGSGTDYTFTISSLQPEDIATYYCLQHGESPYTFGQGTKLEITRTVAAPSVFIFPPSDEQLKSGTASVVCLLNNFYPREAKVQWKVDNALQSGNSQESVTEQDSKDSTYSLSSTLTLSKADYEKHKVYACEVTHQGLSSPVTKSFNRGEC
4 | 142 ng/mL | 280 ng/mL | 3300 ng/mL | 4 ng/mL | CHO-CNTO 860 A330Y (antibody, human IgG1, kappa, N-linked glycan at Asn297 of the heavy chain (CHO-type, highly fucosylated); not carried by the letters, IgG1/kappa Fc variant; transiently expressed in CHO cells (p4183/p4146); EU numbering; also called A330Y (CHO cell-derived); copies: 2 + 2) heavy: not shown light: DIQMTQSPSSLSASVGDRVTITCKASQDIRKYLNWYQQKPGKAPKLLIYYATSLADGVPSRFSGSGSGTDYTFTISSLQPEDIATYYCLQHGESPYTFGQGTKLEITRTVAAPSVFIFPPSDEQLKSGTASVVCLLNNFYPREAKVQWKVDNALQSGNSQESVTEQDSKDSTYSLSSTLTLSKADYEKHKVYACEVTHQGLSSPVTKSFNRGEC
5 | 78 ng/mL | 165 ng/mL | 340 ng/mL | 0.4 ng/mL | YB2/0-CNTO 860 A330Y (antibody, human IgG1, kappa, N-linked glycan at heavy chain Asn297 (YB2/0-type, low fucose); not carried by the letters, IgG1/kappa Fc variant; stably expressed in YB2/0 cells (p4176/p2402); EU numbering; also called A330Y (YB2/0 cell-derived); copies: 2 + 2) heavy: not shown light: DIQMTQSPSSLSASVGDRVTITCKASQDIRKYLNWYQQKPGKAPKLLIYYATSLADGVPSRFSGSGSGTDYTFTISSLQPEDIATYYCLQHGESPYTFGQGTKLEITRTVAAPSVFIFPPSDEQLKSGTASVVCLLNNFYPREAKVQWKVDNALQSGNSQESVTEQDSKDSTYSLSSTLTLSKADYEKHKVYACEVTHQGLSSPVTKSFNRGEC
